B1: CA173 (antibody, V domains shown)
VH: EVQLVESGGGLVKPGGSLRLSCAASGFTFSSYSMNWVRQAPGEGLEWVSSISSSSTYIYYADSVKGRFTISRDNAKNSLYLQMNSLRAEDTAVYYCARDRPAGSSSLGSGYFDLWGRGTLVTVSS
VL: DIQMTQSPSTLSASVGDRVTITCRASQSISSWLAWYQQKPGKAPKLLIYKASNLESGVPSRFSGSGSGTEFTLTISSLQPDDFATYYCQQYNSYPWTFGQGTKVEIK
B2: CA148 (antibody, V domains shown)
VH: QVQLVQSGAEVKKPGASVKVSCKASGYTFTSYGISWVRQAPGQGLEWMGWISAYNGNTNYAQKLQGRVTMTTDTSTSTAYMELRSLRSDDTAVYYCARTPGDEYYYYYYMDVWGKGTTVTVSS
VL: EIVLTQSPATLSLSPGERATLSCRASQSVSSYLAWYQQKPGQAPRLLIYDASNRATGIPARFSGSGSGTDFTLTISSLEPEDFAVYYCQQRSNWPRTFGQGTKLEIK
B3: CA141 (antibody, V domains shown)
VH: QVQLQESGGGLVKPGGSLRLSCAASGFTFSSYSMNWVRQAPGKGLEWVSSISSSSSYIYYADSVKGRFTISRDNAKNSLYLQMNSLRAEDTAVYYCARASENGDDAFDIWGQGTMVTVSS
VL: EIVLTQSPATLSLSPGERATLSCRASQSVSSYLAWYQQKPGQAPRLLIYDASNRATGIPARFSGSGSGTDFTLTISSLEPEDFAVYYCQQRSNWPPYTFGQGTKLEIK
B4: CA143 (human antibody on a human IgG1 backbone) (antibody, V domains shown)
VH: B3 VH with Q5V, E6Q, A99D, E101L, N102P, G103A, D104G, A106Y, I109Y, M115L
VL: DIQLTQSPSFLSASVGDRVTITCRASQGISSYLAWYQQKPGKAPKLLIYAASTLQSGVPSRFSGSGSGTEFTLTISSLQPEDFATYYCQQLNSYPQTTFGGGTKVEIK
B5: CA156 (antibody, V domains shown)
VH: EVQLVESGGGLVKPGGSLRLSCAASGFTFSSYSMNWVRQAPGKGLEWVSSISSSSSYIYYADSVKGRFTISRDNAKNSLYLQMNSLRAEDTAVYYCARDFSGDFWSGYDYWGQGTLVTVSS
VL: not shown
B6: CA152 (antibody, V domains shown)
VH: QVQLVQSGAEVKKPGSSVKVSCKASGGTFSSYAISWVRQAPGQGLEWMGGIIPIFGTANYAQKFQGRVTITADESTSTAYMELSSLRSEDTAVYYCARGQWSPGGYGMDVWGQGTTVTVSS
VL: not shown
B7: CA157 (antibody, V domains shown)
VH: EVQLVESGGGLVQPGGSLRLSCAASGFTFSSYEMNWVRQAPGKGLEWVSYISSSGSTIYYADSVKGRFTISRDNAKNSLYLQMNSLRAEDTAVYYCARGYCSSTSCPFDYWGQGTLVTVSS
VL: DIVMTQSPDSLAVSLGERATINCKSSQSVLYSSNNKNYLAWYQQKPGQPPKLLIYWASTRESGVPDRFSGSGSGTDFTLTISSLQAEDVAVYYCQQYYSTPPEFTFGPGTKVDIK
B8: CA159 (antibody, V domains shown)
VH: QVQLVQSGAEVKKPGSSVKVSCKASGGTFSSYAISWVRQAPGQGLEWMGGIIPIFGTANYAQKFQGRVTITADESTSTAYMELSSLRSEDTAVYYCARASYYYYYMDVWGKGTTVTVSS
VL: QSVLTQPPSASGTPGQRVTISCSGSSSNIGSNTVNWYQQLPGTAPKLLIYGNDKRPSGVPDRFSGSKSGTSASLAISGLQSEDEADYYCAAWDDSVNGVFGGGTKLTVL
B9: CA151 (antibody, V domains shown)
VH: QVQLQESGPGLVKPSETLSLTCTVSGGSVSSGSYYWSWIRQPPGKGLEWIGYIYYSGSTNYNPSLKSRVTISVDTSKNQFSLKLSSVTAADTAVYYCASFTRMSPYAFDIWGQGTMVTVSS
VL: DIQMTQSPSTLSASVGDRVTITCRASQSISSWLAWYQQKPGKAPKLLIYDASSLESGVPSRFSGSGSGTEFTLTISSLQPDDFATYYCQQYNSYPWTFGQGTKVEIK
B10: CA168 (antibody, V domains shown)
VH: QVQLVQSGAEVKKPGSSVKVSCKASGGTFSSYAISWVRQAPGQGLEWMGGIIPIFGTANYAQKFQGRVTITADKSTSTAYMELSSLRSEDTAVYYCARALTYYDFPDYGMDVWGQGTTVTVSS
VL: QSALTQPPSASGSPGQSVTISCTGTSSDVGGYNYVSWYQQHPGKVPKLMIYEVTKRPSGVPDRFSGSKSGNTASLTVSGLQAEDEADYYCSSYAGSNNLVFGGGTKLTVL
B11: CA144 (antibody, V domains shown)
VH: QVQLVQSGGGLVKPGGSLRLSCAASGFTFSSYSMNWVRQAPGKGLEWVSSISSSSSYIYYADSVKGRFTISRDNAKNSLYLQMNSLRAEDTAVYYCARDRVEMAFHFDYWGQGTLVTVSS
VL: not shown
B12: CA162 (antibody, V domains shown)
VH: QVQLVESGGGLVKPGGSLRLSCAASGFTFSDYYMSWIRQAPGKGLEWVSYISSSSSYTNYADSVKGRFTISRDNAKNSLYLQMNSLRAEDTAVYYCARGRTMFKNYYDSSGYYGYFDYWGQGTLVTVSS
VL: DIQMTQSPSSVSASVGDRVTITCRASQGISSWLAWYQQKPGKAPKLLIYAASSLQSGVPSRFSGSGSGTDFTLTISSLQPEDFATYYCQQANSPLTFGGGTKVEIK
B13: CA154 (antibody, V domains shown)
VH: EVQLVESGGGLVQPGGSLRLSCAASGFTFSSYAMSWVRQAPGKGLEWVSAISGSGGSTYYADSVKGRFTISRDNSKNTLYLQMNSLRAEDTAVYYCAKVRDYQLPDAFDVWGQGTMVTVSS
VL: AIRMTQSPSSFSASTGDRVTITCRASQGISSYLAWYQQKPGKAPKLLIYAASTLQSGVPSRFSGSGSGTDFTLTISCLQSEDFATYYCQQYYSYALTFGGGTKVEIK
B14: CA169 (antibody, V domains shown)
VH: EVQLVESGGGLVKPGGSLRLSCAASGFTFSSYSMNWVRQAPGKGLEWVSSISSSSSYIYYADSVKGRFTISRDNAKNSLYLQMNSLRAEDTAVYYCASGVLLEAFDYWGQGTLVTVSS
VL: SYVLTQPPSVSVAPGQTARITCGGNNIGSKSVHWYQQKPGQAPVLVVYDDSDRPSGIPERFSGSNSGNTATLTISRVEAGDEADYYCQVWDSSSDHVVFGGGTKLTVL
B15: CA153 (antibody, V domains shown)
VH: EVQLVESGGGLVKPGGSLRLSCAASGFTFSSYSMNWVRQAPGKGLEWVSSISSSSSYIYYADSVKGRFTISRDNAKNSLYLQMNSLRAEDTAVYYCARLTYYYYMDVWGKGTTVTVSS
VL: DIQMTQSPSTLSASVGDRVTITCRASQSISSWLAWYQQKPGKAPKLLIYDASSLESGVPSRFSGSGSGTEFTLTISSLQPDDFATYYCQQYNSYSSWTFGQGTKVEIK
B16: CA158 (antibody, V domains shown)
VH: B14 VH with S98R, G99M, V100Y, L101Q, E103A, F105I
VL: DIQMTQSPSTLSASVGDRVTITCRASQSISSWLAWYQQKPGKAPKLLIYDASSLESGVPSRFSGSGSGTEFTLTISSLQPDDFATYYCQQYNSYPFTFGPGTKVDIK
B17: CA166 (antibody, V domains shown)
VH: EVQLVESGGGLVKPGGSLRLSCAASGFTFSSYSMNWVRQAPGKGLEWVSSISSSSSYIYYADSVKGRFTISRDNAKNSLYLQMNSLRAEDTAVYYCARVMITFGGADYWGQGTLVTVSS
VL: DIQMTQSPSSLSASVGDRVTITCRASQNINTYLNWYQKRPGIAPKLLIYGASSLQSGVPSRFSGSGSGTDFTLTISSLQPEDFATYYCQQYHTSPLTFGGGTPVDIK
B18: CA170 (antibody, V domains shown)
VH: B17 VH with V99D, M100R, I101D, T102L, F103L, G104D, G105A, A106F, Y108I, L114M
VL: SYVLTQPPSVSVAPGQTARITCGGNNIGSKSVHWYQQKPGQAPVLVVYDDSDRPSGIPERFSGSNSGNTATLTISRVEAGDEADYYCQVWDSSSDHPWVFGGGTKLTVL
B19: CA145 (antibody, V domains shown)
VH: EVQLVESGGGLVKPGGSLRLSCAASGFTFSDYYMSWIRQAPGKGLEWVSYISSSGSTIYYADSVKGRFTISRDNAKNSLYLQMNSLRAEDTAVYYCARDVLELRWWFDPWGQGTLVTVSS
VL: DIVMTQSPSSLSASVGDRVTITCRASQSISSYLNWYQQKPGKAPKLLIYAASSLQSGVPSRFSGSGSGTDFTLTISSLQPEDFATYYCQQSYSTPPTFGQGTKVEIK
B20: CA146 (antibody, V domains shown)
VH: EVQLVQSGGGVVQPGRSLRLSCAASGFTFSSYGMHWVRQAPGKGLEWVAVISYDGSNKYYADSVKGRFTISRDNSKNTLYLQMNSLRAEDTAVYYCAKDRYSIVGATSNGMDVWGQGTTVTVSS
VL: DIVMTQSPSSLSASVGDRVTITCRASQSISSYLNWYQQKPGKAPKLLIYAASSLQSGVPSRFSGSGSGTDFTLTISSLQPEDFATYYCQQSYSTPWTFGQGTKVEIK
B21: CA150 (antibody, V domains shown)
VH: QVQLVQSGAEVKKPGSSVKVSCKASGGTFSSYAISWVRQAPGQGLEWMGGIIPIFGTANYAQKFQGRVTITADESTSTAYMELSSLRSEDTAVYYCASFPNCSSTSCYYYYYMDVWGKGTTVTVSS
VL: QSALTQPASVSGSPGQSITISCTGTSSDVGGYNYVSWYQQHPGKAPKLMIYDVSNRPSGVSNRFSGSKSGNTASLTISGLQAEDEADYYCSSYTSSSTRDVVFGGGTKLTVL

Changes are numbered by the printed parent chain.

One assay deals with T1, HLA-E-RL9HIV single chain trimer on transfected 293T cells (human, UniProt P61769 21-119; P13747 22-358).
T1 construct: also called control HLA-E-peptide complex
Briefly: flow cytometry, SCT-transfected 293T cells, MFI bar chart [E].
In the case of B1, the binding result was “no binding (tested: 2 µg/ml)”.

On to B2, for which the binding result is recorded as “no binding (tested: 2 µg/ml)”.

As to B3, the binding result is “no binding (tested: 2 µg/ml)”.

In the case of B4, the binding result was “no binding (tested: 2 µg/ml)”.

As for B5, the binding result is “no binding (tested: 2 µg/ml)”.

For B6, the binding result is given as “no binding (tested: 2 µg/ml)”.

For the molecule B7, the binding result is reported as “no binding (tested: 2 µg/ml)”.

For the molecule B8, the binding result is on record as “no binding (tested: 2 µg/ml)”.

Turning to B9, the binding result was “no binding (tested: 2 µg/ml)”.

For the molecule B10, the binding result is on record as “no binding (tested: 2 µg/ml)”.

With B11, the binding result is “no binding (tested: 2 µg/ml)”.

Consider B12, for which the binding result was “no binding (tested: 2 µg/ml)”.

For the molecule B13, the binding result is on record as “no binding (tested: 2 µg/ml)”.

Turning to B14, the binding result is “no binding (tested: 2 µg/ml)”.

B15: the binding result was “no binding (tested: 2 µg/ml)”.

Regarding B16, the binding result is recorded as “no binding (tested: 2 µg/ml)”.

On to B17, for which the binding result was “no binding (tested: 2 µg/ml)”.

Consider B18, for which the binding result is recorded as “no binding (tested: 2 µg/ml)”.

Consider B19, for which the binding result was “no binding (tested: 2 µg/ml)”.

For the molecule B20, the binding result is “no binding (tested: 2 µg/ml)”.

Take B21: the binding result is listed as “no binding (tested: 2 µg/ml)”.

The next assay addresses T2, HLA-E-RL9SIV single chain trimer on transfected 293T cells (human, UniProt P61769 21-119; P13747 22-358).
T2 construct: also called control HLA-E-peptide complex
The description is as above.
On to B1, for which the binding result is listed as “no binding (tested: 2 µg/ml)”.

For the molecule B2, the binding result is reported as “no binding (tested: 2 µg/ml)”.

Regarding B3, the binding result is on record as “no binding (tested: 2 µg/ml)”.

Regarding B4, the binding result is reported as “no binding (tested: 2 µg/ml)”.

Regarding B5, the binding result is recorded as “no binding (tested: 2 µg/ml)”.

Take B6: the binding result is reported as “no binding (tested: 2 µg/ml)”.

With B7, the binding result is “no binding (tested: 2 µg/ml)”.

In the case of B8, the binding result was “no binding (tested: 2 µg/ml)”.

For the molecule B9, the binding result was “no binding (tested: 2 µg/ml)”.

On to B10, for which the binding result is on record as “no binding (tested: 2 µg/ml)”.

As for B11, the binding result was “no binding (tested: 2 µg/ml)”.

Regarding B12, the binding result is “no binding (tested: 2 µg/ml)”.

For the molecule B13, the binding result is “no binding (tested: 2 µg/ml)”.

Turning to B14, the binding result is on record as “no binding (tested: 2 µg/ml)”.

Take B15: the binding result is recorded as “no binding (tested: 2 µg/ml)”.

In the case of B16, the binding result is “no binding (tested: 2 µg/ml)”.

For B17, the binding result is on record as “no binding (tested: 2 µg/ml)”.

As for B18, the binding result is on record as “no binding (tested: 2 µg/ml)”.

In the case of B19, the binding result is listed as “no binding (tested: 2 µg/ml)”.

In the case of B20, the binding result was “no binding (tested: 2 µg/ml)”.

On to B21, for which the binding result is given as “no binding (tested: 2 µg/ml)”.

Source of the values: patent US20250051454A1 (DUKE UNIVERSITY, published 2025).
